Target: AD-E2F1 (GAL4-AD fused to AA 159-437 of E2F1) (yeast; human) (UniProt P04386)
Test: cell-based or functional assay

Question: With “DB-DP1 (GAL4-DB fused to DP1) (from UniProt P04386 1-147; Q14186 1-410)” as the substance, how does the growth on medium lacking histidine with 3AT (GAL1:HIS3 reporter) read?
Answer: < 100 mM 3AT

Reference: US20050053913A1
